# B1: Phospholipid-transporting ATPase accessory subunit LEM3 (Saccharomyces cerevisiae), P42838 (parent)
# chain: MVNFDLGQVGEVFRRKDKGAIVSGDNPEEEEDVDASEFEEDEVKPVRTKNRRPKEDAFTQQRLAAINPVLTPRTVLPLYLLIAVVFVIVGGCILAQNSKVDEVTIYYQDCMTNATSSWSDIPSEHWQFVFHKYKTYNTAPQWRFVDDESDDFTKQRGTCQIRFTTPSDMKNNVYLNYVLEKFAANHRRYVLSFSEDQIRGEDASYETVHDATGINCKPLSKNADGKIYYPCGLIANSMFNDTFPLQLTNVGDTSNNYSLTNKGINWESDKKRYKKTKYNYTQIAPPPYWEKMYPDGYNETNIPDIQDWEEFQNWMRPGAFDKITKLIRINKNDTLPAGEYQLDIGLHWPVLEFNGKKGIYLTHGSHLGGRNPFLGIVYLIGGCICAAMALILLTFWLFGGRKIADASSLSWNMK
# Variants of: B1
# Conditions: with atc5_yeast DNF1, P32660
# Sequence of atc5_yeast DNF1, P32660 (P32660 whole entry): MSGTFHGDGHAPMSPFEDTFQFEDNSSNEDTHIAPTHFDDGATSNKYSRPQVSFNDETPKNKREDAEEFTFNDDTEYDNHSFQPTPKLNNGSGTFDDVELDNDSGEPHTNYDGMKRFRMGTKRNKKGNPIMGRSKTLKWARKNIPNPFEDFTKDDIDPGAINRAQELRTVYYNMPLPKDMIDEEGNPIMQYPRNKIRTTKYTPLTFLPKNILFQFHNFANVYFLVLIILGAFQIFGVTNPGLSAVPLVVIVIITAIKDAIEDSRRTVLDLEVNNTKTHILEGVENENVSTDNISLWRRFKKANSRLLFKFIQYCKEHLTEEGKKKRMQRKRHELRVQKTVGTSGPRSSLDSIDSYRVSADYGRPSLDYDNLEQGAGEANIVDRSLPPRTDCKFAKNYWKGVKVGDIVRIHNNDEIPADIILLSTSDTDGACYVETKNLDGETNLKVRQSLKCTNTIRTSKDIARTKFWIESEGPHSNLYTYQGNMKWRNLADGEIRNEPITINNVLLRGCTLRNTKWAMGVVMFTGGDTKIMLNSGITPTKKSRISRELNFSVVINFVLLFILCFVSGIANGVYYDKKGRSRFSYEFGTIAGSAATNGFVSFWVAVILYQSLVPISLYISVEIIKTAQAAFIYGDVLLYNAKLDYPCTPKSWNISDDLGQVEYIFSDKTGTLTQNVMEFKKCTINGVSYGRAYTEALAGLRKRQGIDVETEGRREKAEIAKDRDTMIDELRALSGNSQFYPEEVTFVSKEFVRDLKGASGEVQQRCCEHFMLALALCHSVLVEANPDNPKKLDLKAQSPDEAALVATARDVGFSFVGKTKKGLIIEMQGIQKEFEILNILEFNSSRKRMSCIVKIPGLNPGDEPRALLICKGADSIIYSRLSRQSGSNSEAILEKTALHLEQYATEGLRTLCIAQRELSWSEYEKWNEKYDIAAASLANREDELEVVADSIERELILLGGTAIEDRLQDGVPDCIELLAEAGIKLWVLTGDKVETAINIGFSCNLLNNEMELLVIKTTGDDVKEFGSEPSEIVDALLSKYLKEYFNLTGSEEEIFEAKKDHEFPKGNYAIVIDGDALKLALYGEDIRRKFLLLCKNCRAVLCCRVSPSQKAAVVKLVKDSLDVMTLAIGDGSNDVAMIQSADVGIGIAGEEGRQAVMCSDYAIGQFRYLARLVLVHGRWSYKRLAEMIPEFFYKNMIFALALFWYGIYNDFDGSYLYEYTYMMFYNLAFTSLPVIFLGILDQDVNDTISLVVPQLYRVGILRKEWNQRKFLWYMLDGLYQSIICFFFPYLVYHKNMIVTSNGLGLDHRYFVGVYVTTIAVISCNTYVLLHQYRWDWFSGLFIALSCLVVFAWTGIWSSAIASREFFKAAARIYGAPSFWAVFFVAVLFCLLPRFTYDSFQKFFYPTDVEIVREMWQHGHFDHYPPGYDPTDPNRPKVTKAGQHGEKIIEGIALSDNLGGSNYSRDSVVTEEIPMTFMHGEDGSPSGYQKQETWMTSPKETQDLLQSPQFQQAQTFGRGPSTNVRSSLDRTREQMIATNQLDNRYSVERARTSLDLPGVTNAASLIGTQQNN
row,Variant,effect of a mutation on the interaction
1,MVNFDLGQVGEVFRRKDKGAIVSGDNPEEEEDVDASEFEEDEVKPVRTKNRRPKEDAFTQQRLAAINPVLTPRTVLPLYLLIAVVFVIVGGCILAQNSKVDEVTIYYQDCMTNATSSWSDIPSEHWQFVFHKYKTYNTAPQWRFVDDESDDFTKQRGTCQIRFTTPSDMKNNVYLNYVLEKFAANHRRYVLSFSEDQIRGEDASYETVHDATGINCKPLSKNADGKIYYPCGLIANSMFNDTFPLQLTNVGDTSNNYSLTNKGINWESDKKRYKKTKYNYTQIAPPPYWEKMYPDGYNETNIPDIQDWEEFQNWMWPGAFDKITKLIRINKNDTLPAGEYQLDIGLHWPVLEFNGKKGIYLTHGSHLGGRNPFLGIVYLIGGCICAAMALILLTFWLFGGRKIADASSLSWNMK [R316W],with no effect

# Variants of: B1
# Conditions: with atc4_yeast DNF2, Q12675
# Sequence of atc4_yeast DNF2, Q12675 (Q12675 whole entry): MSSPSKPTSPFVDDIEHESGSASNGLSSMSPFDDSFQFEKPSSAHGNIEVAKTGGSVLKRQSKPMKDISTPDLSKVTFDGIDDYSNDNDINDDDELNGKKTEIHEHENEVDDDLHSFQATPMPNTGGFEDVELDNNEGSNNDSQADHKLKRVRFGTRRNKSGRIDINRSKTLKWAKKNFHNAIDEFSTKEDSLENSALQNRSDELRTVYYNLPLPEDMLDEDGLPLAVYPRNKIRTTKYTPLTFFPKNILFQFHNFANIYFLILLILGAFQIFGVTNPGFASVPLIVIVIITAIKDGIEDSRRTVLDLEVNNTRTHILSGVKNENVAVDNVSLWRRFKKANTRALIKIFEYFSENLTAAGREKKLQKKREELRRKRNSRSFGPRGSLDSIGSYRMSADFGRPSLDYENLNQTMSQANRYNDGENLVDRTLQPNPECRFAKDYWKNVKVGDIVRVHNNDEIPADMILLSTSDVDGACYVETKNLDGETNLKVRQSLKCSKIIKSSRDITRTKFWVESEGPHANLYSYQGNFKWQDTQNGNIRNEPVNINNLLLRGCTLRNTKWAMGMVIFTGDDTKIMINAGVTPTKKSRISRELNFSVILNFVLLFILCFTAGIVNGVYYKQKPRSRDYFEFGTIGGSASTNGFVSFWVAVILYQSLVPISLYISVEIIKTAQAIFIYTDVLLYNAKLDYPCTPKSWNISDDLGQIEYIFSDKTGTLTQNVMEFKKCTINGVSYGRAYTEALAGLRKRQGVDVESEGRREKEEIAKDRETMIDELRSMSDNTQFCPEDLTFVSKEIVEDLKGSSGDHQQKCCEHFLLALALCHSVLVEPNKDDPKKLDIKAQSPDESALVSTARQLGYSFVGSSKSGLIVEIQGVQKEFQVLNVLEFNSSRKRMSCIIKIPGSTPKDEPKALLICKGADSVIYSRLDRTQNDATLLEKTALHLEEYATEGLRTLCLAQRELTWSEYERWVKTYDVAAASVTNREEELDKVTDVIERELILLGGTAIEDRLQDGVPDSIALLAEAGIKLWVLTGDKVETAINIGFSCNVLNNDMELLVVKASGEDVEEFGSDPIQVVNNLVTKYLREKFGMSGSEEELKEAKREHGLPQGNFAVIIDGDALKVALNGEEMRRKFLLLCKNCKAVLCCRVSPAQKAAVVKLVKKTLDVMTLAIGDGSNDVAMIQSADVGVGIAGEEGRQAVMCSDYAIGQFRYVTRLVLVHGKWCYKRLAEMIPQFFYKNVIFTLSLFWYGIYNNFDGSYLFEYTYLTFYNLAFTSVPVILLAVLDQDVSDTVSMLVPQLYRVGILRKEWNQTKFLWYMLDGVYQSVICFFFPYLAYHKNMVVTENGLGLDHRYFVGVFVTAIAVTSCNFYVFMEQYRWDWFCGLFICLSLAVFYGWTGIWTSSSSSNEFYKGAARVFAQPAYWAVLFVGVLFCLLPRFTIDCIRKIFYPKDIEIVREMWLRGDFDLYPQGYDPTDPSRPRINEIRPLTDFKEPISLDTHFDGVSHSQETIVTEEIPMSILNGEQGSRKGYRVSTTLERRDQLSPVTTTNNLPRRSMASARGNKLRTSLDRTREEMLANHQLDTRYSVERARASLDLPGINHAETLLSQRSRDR
row,Variant,effect of a mutation on the interaction
1,MVNFDLGQVGEVFRRKDKGAIVSGDNPEEEEDVDASEFEEDEVKPVRTKNRRPKEDAFTQQRLAAINPVLTPRTVLPLYLLIAVVFVIVGGCILAQNSKVDEVTIYYQDCMTNATSSWSDIPSEHWQFVFHKYKTYNTAPQWRFVDDESDDFTKQRGTCQIRFTTPSDMKNNVYLNYVLEKFAANHRRYVLSFSEDQIRGEDASYETVHDATGINCKPLSKNADGKIYYPCGLIANSMFNDTFPLQLTNVGDTSNNYSLTNKGINWESDKKRYKKTKYNYTQIAPPPYWEKMYPDGYNETNIPDIQDWEEFQNWMWPGAFDKITKLIRINKNDTLPAGEYQLDIGLHWPVLEFNGKKGIYLTHGSHLGGRNPFLGIVYLIGGCICAAMALILLTFWLFGGRKIADASSLSWNMK [R316W],with no effect
